From the supplement of paper PMC9170038

Tested on: MS2 coat protein
Assay: apparent KD of MS2 coat protein; designed switch direction (-1 OFF switch, 1 ON switch): -1; higher = weaker reporter binding
Outline: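 On Illumina chips, designed RNA switches with common flanks were made by stalled E. coli RNA polymerase. Titrations with SNAP-549-labelled MS2 coat protein, doubling from 0.7 or 1.5 nM to 3 µM, were done with no input, with 200 uM small-molecule ligand, or with an oligonucleotide input. Apparent KD is the median per design over clusters, from curve fits of normalised cluster fluorescence.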

[1] = Eterna round: R95, input ligand: FMN 200 uM
[2] = Eterna round: R95, input ligand: microRNA oligo, concentration not stated
[3] = Eterna round: R95, input ligand: none
[4] = input ligand: microRNA oligo, concentration not stated

Sequence | apparent KD of MS2 coat protein [1] [µM] | apparent KD of MS2 coat protein [2] [µM] | apparent KD of MS2 coat protein [3] [µM] | apparent KD of MS2 coat protein (input ligand: FMN 200 uM) [µM] | apparent KD of MS2 coat protein (input ligand: none) [µM] | apparent KD of MS2 coat protein [4] [µM]
GUUAAACAUGAGGAUCACCCAUGUAAGGAUAUGCUGAGGUAGAGAUGAAGUGAAUGAAGCAGAAGGUACAAUUG [Mat - Mod of JL D55] (puzzle: Exclusion 1) | 0.0626 | 0.0818 | 0.0788 | – | – | –
GUUAACGCAGGAUAUUAGUACAUGUACAUGAGGAUCACCCAUGUUUAGUGGGUCUAGGAAUAAGAAGGGCGAUGAA [JR_Ex5_Sub007] (Eterna round: R97, puzzle: Exclusion 5) | – | – | – | 0.28 | 0.535 | –
GUUAAGUGAGGAUAUGGUAAAUUAAUUAUUAAUUAAUUAAUCCAGAAGGCACAUGAGGAUCACCCAUGUAAAUG [Mat - Exclusion 4 - D87] (puzzle: Exclusion 4) | 0.0546 | 0.0305 | 0.0315 | – | – | –
GUUAGACAUGAGGAUCACCCAUGUGAGGAUAUGAUGCGAUCGUGCUGACAUGAUCGCAUCAGAAGGCACAUAUG [Mat - Mod of JL D66] (puzzle: Exclusion 1) | – | 0.0957 | – | – | – | –
GUUAGUUAAGGAUAUACAGGGAGCUGCGGCGUCUCGCCGCAACAUGAGGAUCACCCAUGUAGAAGGUGGCCAUU [JL ViennaUCT Enbibi mod 3] (puzzle: Exclusion 2) | – | 0.471 | – | – | – | –
GUUAUGUAAGGAUAUAUGAGUCACGGAAAUAAACCGUGAAGAUAGAAGGUACAUGAGGAUCACCCAUGUAAGGC [Mod of Anonveat 9 - Jieux - Exclusion 4] (Eterna round: R97, puzzle: Exclusion 4) | – | – | – | 0.0167 | 0.014 | –
GUUAUGUCAGGAUAUGCUAAUGAUGAGUGCUCAGACAUGAUGCAGAAGGGACAUGAGGAUCACCCAUGUACUGA [EX4 #12] (Eterna round: R97, puzzle: Exclusion 4) | – | – | – | 0.102 | 0.0353 | –
GUUCGACAUGAGGAUCACCCAUGUGAGGAUAUACGAUUAGCUGCUAGGUAGUUAGUAUGUAGAAGGUGCAUGAA [EX1 #73] (Eterna round: R97, puzzle: Exclusion 1) | – | – | – | 0.0552 | 0.0417 | –
GUUCGACAUGAGGAUCACCCAUGUGAGGAUAUACGAUUAGCUGCUAGGUAGUUAGUAUGUAGAAGGUGCGUGAA [EX1 #72] (Eterna round: R97, puzzle: Exclusion 1) | – | – | – | 0.044 | 0.0416 | –
GUUGCUACUGAGGAUAUUAUUUUACCCGACUGAUAAGAAGGCAGUACAUGAGGAUCACCCAUGUGGGUAGCCAG [Polaris15] (Eterna round: R97, puzzle: Exclusion 6) | – | – | – | 0.0441 | 0.0218 | –
GUUGUGUGAGGAUAUGCCUGGCCGUGAGGCCAGAUUGAGUGGCAGAAGGUACAUGAGGAUCACCCAUGUACGGG [salish99_ex4_4_004] (Eterna round: R97, puzzle: Exclusion 4) | – | – | – | 0.0541 | 0.0244 | –
GUUGUUCGAGGAUAUACAUGAGGAUCACCCAUGUGUGUUGUGGGCGACGUUCGUUUAUGUAGAAGGCGGGCGGC [-27.2, -23.9 kcal, 19% A] (Eterna round: R97, puzzle: Exclusion 3) | – | – | – | 0.0782 | 0.0501 | –
GUUUAGUGAGGAUAUAAGGCUUCGAUCGAGCGCGGUCUGCUACAGAAGGCACAUGAGGAUCACCCAUGUUUCUC [salish99_ex4_r4_311] (Eterna round: R97, puzzle: Exclusion 4) | – | – | – | 0.0292 | 0.0344 | –
GUUUCACAUGAGGAUCACCCAUGUGAGGAUAUGAAUUUGUUAACCGUAGUUAAUAGAUUCAGAAGGCGCGUGAU [JRxlusion 1- Jieux - Exclusion 1] (Eterna round: R97, puzzle: Exclusion 1) | – | – | – | 0.0666 | 0.0703 | –
GUUUGCACGCUGCGGUCCUACAUGAGGAUCACCCAUGUGGUCUGGUGGCGUGGGUCGCCGGACUUGGCUCGUCUUGG [salish99_S_TOV1_R5_039] (Eterna round: R97, puzzle: Sensor, turn-off variant 1) | – | – | – | 0.015 | 0.0148 | –
UAAAAGAAAGUAAGGAUAUCUAAAUUGGAAAAGAGAGAGAAGGUACAUGAGGAUCACCCAUGUAGGGUAUCCUG [Ritien] (Eterna round: R97, puzzle: Brourd's mod of Exclusion 4) | – | – | – | 0.0418 | 0.0422 | –
UAAAAGCUAGGAUAUACAUGAGGAUCACCCAUGUACCGGCUUGGCCCUGGUCCUAAAUGUAGAAGGAGCACGCC [Zarebebi] (puzzle: Exclusion 3) | – | 0.0142 | – | – | – | –
UAAAGUGAGUCCUCGCAGCAGCGUAGGGCGGUGCUAGCUACAUGAGGAUCACCCAUGUUUUCGCUCGUCCAGCACCU [Ceaorreti] (Eterna round: R96, puzzle: Sensor v2, turn-off variant 2) | – | – | – | 0.0892 | 0.101 | 0.0592
UAAAUGUGAGGAUAUCAGGUGUGCUAGAGAACUGGUACAUCUGAGAAGGCACAUGAGGAUCACCCAUGUUCUUC [Mat - Exclusion 4 - Mod of JL - D56] (puzzle: Exclusion 4) | – | 0.0383 | – | – | – | –
UAACGUGGCCUGAUCCUCCCUAACAUGAGGAUCACCCAUGUCUAGGAUAUCCGAACAAACAACGAGGAGAAGGAGACGAAACAU [Veleedan] (Eterna round: R96, puzzle: Exclusion NG 3) | – | – | – | 0.0375 | 0.0283 | 0.0227
UAACUACAUGUAGGAUAUGCGUGGCGAAGCUAUGCAGAAGGACAUGAGGAUCACCCAUGUUUUAGCGUCUGCGUACAGAUGCGU [JL ENG1 1.50] (Eterna round: R96, puzzle: Exclusion NG 1) | – | – | – | 0.0348 | 0.0191 | 0.0131
UAACUUCUAGUAAGGAUAUCGGUCCCAAGGGACAACGAGAAGGUACAUGAGGAUCACCCAUGUGAAAUAAGAAU [Mod of Zala 2 - Jieux - Brourd's Mod of Exclusion 4] (Eterna round: R97, puzzle: Brourd's mod of Exclusion 4) | – | – | – | 0.0729 | 0.0207 | –
UAAGCUCUGUCAGGAUAUCCCUGUAAACGCAACGGAGAAGGGACAUGAGGAUCACCCAUGUGCGGGCCCAACGCGCUCGGGUCC [Dilacesole] (Eterna round: R96, puzzle: Exclusion NG 1) | – | – | – | 0.0636 | 0.0351 | 0.0236
UAAGUUUACCGAGGAUAUGGUCCAUAAUUUUUACCAGAAGGCGGACUCAACAUGAGGAUCACCCAUGUAUAAAGGGUAUUUGGU [JR_ExcNG1_Sub046] (Eterna round: R96, puzzle: Exclusion NG 1) | – | – | – | 0.0512 | 0.0358 | 0.0274
UAAUAACAUGUAGGAUAUGCGUGGCGAAGCUAUGCAGAAGGACAUGAGGAUCACCCAUGUUAAAGCGUCUGCGUACAGAUGCGA [Mat - Exclusion NG 1 - Mod of JL - D97] (Eterna round: R96, puzzle: Exclusion NG 1) | – | – | – | 0.188 | 0.0311 | 0.0301
UAAUAUAGUGUGAGGAUAUGCUGGUCCUUGGAUCAGCAGAAGGCACAUGAGGAUCACCCAUGUAGUUUAUUUUA [Mat - Exclusion 4 - JL Mod - D2] (puzzle: Brourd's mod of Exclusion 4) | 0.141 | 0.0282 | 0.0283 | – | – | –
UAAUAUAGUGUGAGGAUAUGCUGGUCGAUAGAUCAGCAGAAGGCACAUGAGGAUCACCCAUGUAAUAUAUUAAA [Mat - Exclusion 4 - JL Mod - D36] (puzzle: Brourd's mod of Exclusion 4) | 0.0646 | 0.0307 | 0.0429 | – | – | –
UACAUGAGGAUCACCCAUGUUUUGUCGUGUAUGGUAUUUAUCUAGGAUAUCAAGUUAUUAAUUUAUGAGAAGGAGAAUAUUAAU [JMF's solution 32] (Eterna round: R96, puzzle: Exclusion NG 3) | – | – | – | 0.0439 | 0.0421 | 0.0274
UACAUGAGGAUCACCCAUGUUUUGUCGUGUAUGGUAUUUAUCUAGGAUAUCAAUAUAUUUAUUUAUGAGAAGGAGAAUAUUAAU [JMF's solution 11] (Eterna round: R96, puzzle: Exclusion NG 3) | – | – | – | – | – | 0.0285
UACAUGAGGAUCACCCAUGUUUUGUCGUGUAUGGUAUUUAUCUAGGAUAUCAAUGUAUGUAUUUAUGAGAAGGAGAAUAUUAAU [JMF's solution 43] (Eterna round: R96, puzzle: Exclusion NG 3) | – | – | – | 0.0472 | 0.0409 | 0.0274
